Measurements reported in US20260242731A1.

Tests used:
[1] = target: CD19.1-Fc (Human); test: direct ELISA, CD19 variant coated on plate (2D), FMC63-HRP titrated, OD450nm
[2] = target: CD19.1-His (Human) (UniProt P15391); test: on-bead fluorescence binding capacity assay; beads CD19.1-His (5.0 x moles)
[3] = target: CD19.1-His (Human) (UniProt P15391); test: on-bead fluorescence binding capacity assay; beads CD19.1-His (2.0 x moles)
[4] = target: CD19.1-Fc (Human); test: on-bead ELISA, HRP-conjugated FMC63 titrated on CD19.1 Fc coated beads, absorbance at 450 nm, four-parameter logistic fit
[5] = target: CD19.1-Fc (Human); test: on-bead fluorescence binding capacity assay; beads CD19.1-Fc (1.0 x moles)
[6] = target: CD19.1-His (Human) (UniProt P15391); test: on-bead fluorescence binding capacity assay; beads CD19.1-His (0.5 x moles)
[7] = target: CD19.1-His (Human) (UniProt P15391); test: on-bead fluorescence binding capacity assay; beads CD19.1-His (1.0 x moles)
[8] = target: CD19.1-Fc (Human); test: on-bead anti-CD19-FITC (FMC63) binding assay
[9] = target: CD19.1-Fc (Human); test: on-bead fluorescence binding capacity assay; beads CD19.1-Fc (0.5 x moles)
[10] = target: CD19.1-Fc (Human); test: on-bead fluorescence binding capacity assay; CD19.1-Fc coated beads
[11] = target: CD19.1-Fc (Human); test: on-bead fluorescence binding capacity assay; beads CD19.1-Fc (5.0 x moles)
[12] = target: CD19.1-Fc (Human); test: on-bead fluorescence binding capacity assay; beads CD19.1-Fc (2.0 x moles)
[13] = target: CD19.1-His (Human) (UniProt P15391); test: on-bead ELISA, HRP-conjugated FMC63 titrated on CD19.1 His coated beads, absorbance at 450 nm, four-parameter logistic fit
[14] = target: custom-produced WT etCD19-Fc (Human; human) (UniProt P15391); test: on-bead fluorescence binding capacity assay; wtCD19 Fc coated beads
[15] = target: WT etCD19-His (Acrobiosystems) (Human) (UniProt P15391); test: on-bead ELISA, HRP-conjugated FMC63 titrated on wtCD19 His coated beads, absorbance at 450 nm, four-parameter logistic fit
[16] = target: FMC63-scFv-41BBz CAR on Jurkat-Lucia NFAT cells; test: cell-based or functional assay
[17] = target: FMC63-derived anti-CD19 28z CAR on primary T cells; test: flow cytometry, FITC-labeled protein titrated on anti-CD19 28z CAR primary T cells, four-parameter fit
[18] = target: CD19 antibody FMC63; test: biolayer interferometry, FMC63 immobilized
[19] = target: CD19 antibody FMC63; test: biolayer interferometry, FMC63 immobilized; stronger non-specific binding noted

## CD19 antibody FMC63
[1]
  EC50 (read off the curve): 4 ng/mL
[2]
  % of CD19.1 molecules bound by anti-CD19-FITC: 2.17%
  Moles of antibody per mg of beads (mol per mg of beads): 2e-12
[3]
  % of CD19.1 molecules bound by anti-CD19-FITC: 1.66%
  Moles of antibody per mg of beads (mol per mg of beads): 1.14e-12
[4]
  EC50: 0.59 nM
[5]
  % of CD19.1 molecules bound by anti-CD19-FITC: 0.87%
  Moles of antibody per mg of beads (mol per mg of beads): 4.1e-13
[6]
  % of CD19.1 molecules bound by anti-CD19-FITC: 0.8%
  Moles of antibody per mg of beads (mol per mg of beads): 4.9e-13
[7]
  % of CD19.1 molecules bound by anti-CD19-FITC: 0.76%
  Moles of antibody per mg of beads (mol per mg of beads): 5.1e-13
[8]
  fold binding capacity (functional antigen density) against wtCD19 coated beads (times higher than wtCD19 coated beads): 3.5
[9]
  % of CD19.1 molecules bound by anti-CD19-FITC: 0.7%
  Moles of antibody per mg of beads (mol per mg of beads): 2.8e-13
[10]
  Moles of antibody per mg of beads (mol per mg of beads): 4.6e-13
  Percentage of CD19.1 or wt CD19 Fc molecules bound by anti-CD19-FITC (FMC63): 1.36%
[11]
  % of CD19.1 molecules bound by anti-CD19-FITC: 1.86%
  Moles of antibody per mg of beads (mol per mg of beads): 1e-12
[12]
  % of CD19.1 molecules bound by anti-CD19-FITC: 1.21%
  Moles of antibody per mg of beads (mol per mg of beads): 6e-13
[13]
  EC50: 0.36 nM
[14]
  Moles of antibody per mg of beads (mol per mg of beads): 1.3e-13
  Percentage of CD19.1 or wt CD19 Fc molecules bound by anti-CD19-FITC (FMC63): 0.37%
[15]
  EC50: 0.68 nM

## CD19.1 (immobilized on plates or coated on beads; tagged version not stated) (from UniProt P15391 20-291)
[16]
  maximum stimulation against TransAct at 1:100 dilution (fold stronger than TransAct): 3.4

## CD19.1-Fc (Fc fusion)
[17]
  EC50: 1.9 nM
[18]
  Kd: 0.103 nM

## CD19.1-His (from UniProt P15391 20-291)
[17]
  EC50: 15.8 nM
[18]
  Kd: 3.18 nM

## WT etCD19-His (Acrobiosystems) (from UniProt P15391 20-291)
[19]
  Kd: 7.18 nM

## purchased WT etCD19-His (from UniProt P15391 20-291)
[19]
  Kd: 3.88 nM
